{"source": "the domain aggregation screens of Martell et al. (2025)", "assay": "soluble fraction after stress (log2 fold change); higher = more stays soluble; pooled small domains, quantitative proteomics", "settings": "stress: pH 4", "procedure,_shortened": "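Aggregation propensity is estimated from the fold change in each domain's soluble amount after acid stress. Pooled small-domain libraries were stressed at pH 4, and higher log2 values mean more stayed soluble.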"}
{"sequence": "HMRIEYYDDEELDRYIGTPASGYREAAVEEFREILLTLDADDVPGWVRSLQLRGIEFPESLRPELYL", "values": [{"measurement": "soluble fraction (log2)", "result": -1.5}]}
{"sequence": "HMRIFDDNMIFPTEAEISAALKRLVMDLPKVGFLQGHGERAVDNVGERAYSMFTHANNFRYALINQGFVT", "values": [{"measurement": "soluble fraction (log2)", "result": -0.0562}]}
{"sequence": "HMRIHKQLGDRIRNLRLSSGMNQEELAFKSGISAAHLGQIERGLKSPTISTIQKIAKALNVTLPILF", "values": [{"measurement": "soluble fraction (log2)", "result": 0.311}]}
{"sequence": "HMRININNASARQIADALPGVGLKTARDIKDFQTTLSGERYTRLDQLHSIKRVDWDEIFKADLVRV", "values": [{"measurement": "soluble fraction (log2)", "result": 0.158}]}
{"sequence": "HMRISMRDQVYEIIKNRILSREYSLGEPINIVHLSKELGISNTPIREALSQLETERLITINSNQKYHVT", "values": [{"measurement": "soluble fraction (log2)", "result": -0.0135}]}
{"sequence": "HMRKDEFLQTLRRALNGNVPPRVVEENVRYYDGYISDEVRKGRSEEEVIEEIGDPRLIARTIEDTT", "values": [{"measurement": "soluble fraction (log2)", "result": -0.187}]}
{"sequence": "HMRKDRKVLMERGRHIFNDLLEKEGIVATNQLMTKLLASHHLRNRDELYLMLANDDISLSSKEIKDLS", "values": [{"measurement": "soluble fraction (log2)", "result": 0.22}]}
{"sequence": "HMRKEDYLPIGSVINMDDRKFRVDSVDFDKDKVSLQDMALADARMPIFWEEPLTVVRELYEQQDE", "values": [{"measurement": "soluble fraction (log2)", "result": -0.899}]}
{"sequence": "HMRKEPSYASDIITRLKEADLIVVEGTLYPLLTRLKKDGLLSYEWRESTQGPPRKYYALTLDGET", "values": [{"measurement": "soluble fraction (log2)", "result": -0.895}]}
{"sequence": "HMRKIGDVLRLHAGGLSKRRIAVSLNIGRTAVGDYISRARRAGLGWPLPEDLSEEALERLLFPPP", "values": [{"measurement": "soluble fraction (log2)", "result": 0.151}]}
{"sequence": "HMRKIVEGVLTKKEGKWYLLTDIETYKISDASAEYHKAELNDRASALIPAQNPKVPFASLEKVFN", "values": [{"measurement": "soluble fraction (log2)", "result": 0.186}]}
{"sequence": "HMRKLHFVMSEIYEDHPWIGSKLQDVFLPKDIRVVLVERDSKQFMPNGQTLFELGDRLTLSALHYDPA", "values": [{"measurement": "soluble fraction (log2)", "result": -2.22}]}
{"sequence": "HMRKLTDRQRQILDLIKTIIAETGAPPTRAEISTALGFKSANAAQEHLQALAQKGMIDLVSGASRGIRLRG", "values": [{"measurement": "soluble fraction (log2)", "result": -0.194}]}
{"sequence": "HMRKMELTEAAEKLIEEPDVVSAYRNMQQIFQQWREIGPVPREQRDEVWSHFKDLMTQVNRRHQAHFEN", "values": [{"measurement": "soluble fraction (log2)", "result": -0.258}]}
{"sequence": "HMRKPLDQSWVPDDDAMKILTNSGIEKEFIKNEIPEFILYWSDKGEISDSWNTKFISQIRRQWAKNQ", "values": [{"measurement": "soluble fraction (log2)", "result": -0.465}]}
{"sequence": "HMRKSAVSSTLTSIEGIGATRAKALLKHFKTVAAVSEADLKELEDAPGMTRPSALRVYEYFHGK", "values": [{"measurement": "soluble fraction (log2)", "result": 0.0795}]}
{"sequence": "HMRKSLGEIVFDRMERAIKSGAYSPDERLPTELDLAAEFEVSRPVIRDALKRLRERGLIYSRQGAGSFVRA", "values": [{"measurement": "soluble fraction (log2)", "result": -0.25}]}
{"sequence": "HMRKTIQDFLSSNKVDIAKLLTLALEKTKEDLYKNLSYNLTNKELEKLKLLIKKREQGIPFAYLS", "values": [{"measurement": "soluble fraction (log2)", "result": 0.0954}]}
{"sequence": "HMRLADHVVEKLLALVQERGLQPGQKLPAERQLAEVLGVSRTSVREAIQKLVSQGVLSARRGDGTYVQS", "values": [{"measurement": "soluble fraction (log2)", "result": 0.0683}]}
{"sequence": "HMRLANGIGTVYKLSGNRRNPYIVRKTTGWEIDEESGKAKQKYITIGYAPTRAKGLEMLMDYNKNP", "values": [{"measurement": "soluble fraction (log2)", "result": 0.22}]}
{"sequence": "HMRLDHIFSVVERLKGVSLGAGDRLEVQKYEDLLTVYKSKNALSSEEAQTLNDILASLLKMMAKYD", "values": [{"measurement": "soluble fraction (log2)", "result": -0.54}]}
{"sequence": "HMRLDSELVSARLHRFMGTNRKPDGEIVEKIAAILEGHPIETLDAFLQSLNGRKIKSYGFFPTVLRREIAN", "values": [{"measurement": "soluble fraction (log2)", "result": -0.114}]}
{"sequence": "HMRLEEVSVPQRLLAAIAEEREVQIGIVDGRGGTRVLRVEPLALEGGRLRARDVESGEEFTVLIHRVLL", "values": [{"measurement": "soluble fraction (log2)", "result": -0.809}]}
{"sequence": "HMRLLAESIARGLDPEGSGGLWAKEAGAEALKLMETLAAEAPHGGSFTAAAYRDLFESLVHQGEVREA", "values": [{"measurement": "soluble fraction (log2)", "result": -0.335}]}
{"sequence": "HMRLLGEPLAGRLKKDVPVVTGRSTESKAIAQFFELRWSHLPDPEARTISVASGRIDFMDVGATRFSLR", "values": [{"measurement": "soluble fraction (log2)", "result": 0.124}]}
{"sequence": "HMRLSDSEFESIENAIKEKLENSALTADVLVKELSFDEDKIWKVIRWLEDAEKISEDEAGTLLWKPR", "values": [{"measurement": "soluble fraction (log2)", "result": -0.76}]}
{"sequence": "HMRLSESLLDDIPGIGAARKRALLQSFGSVRKLRHADAEEIAAKVPGIGLNFAEKIVEALRKK", "values": [{"measurement": "soluble fraction (log2)", "result": 0.187}]}
{"sequence": "HMRLTTTPKTARGLTTMNRIIRAAEVEFGRKGYHYTGITDIAQRAKVASGTIYLYFTDKYSLYVHLLT", "values": [{"measurement": "soluble fraction (log2)", "result": 0.17}]}
{"sequence": "HMRLYTQDVAVLNRDVIQGEVITSDMVTTVNVHKRTVPTGALNLSEIPGNVAKFNIPASIPITASMVTK", "values": [{"measurement": "soluble fraction (log2)", "result": -0.171}]}
{"sequence": "HMRMLLKELLIQYEVKNDKSHVEVAKEVGVSLSTYYRWLNGESLHLKKRTIDRLSEVLHYDINQVVEES", "values": [{"measurement": "soluble fraction (log2)", "result": 0.0267}]}
